Measurements reported in PMC5339894, “G196 epitope tag system: a novel monoclonal antibody, G196, recognizes the small, soluble peptide DLVPR with high affinity” (Scientific Reports, 2017).
Where no end group is shown, it is not given here.

Experiments:
[1] = system: anti-FLAG M2 mAb affinity column; details: mild pH (pH 3.5–4.4); cited from earlier work
Source text: Previously, we studied the subcellular localization of myocardin-related transcription factor (MRTF)-B, a shuttle protein between the nucleus and cytoplasm that is expressed in response to various stimuli.

mAb G196 = test: Western blot epitope mapping of bacterially expressed GST proteins with mAb G196; format: binding, mouse; details: purified or bacterially expressed GST proteins, SDS-PAGE, denaturing conditions
Experimental: To confirm that the G196 epitope is located on the C-terminal extension of the 4T-2 fragment, and to further determine the precise location of the G196 mAb epitope, double-stranded oligonucleotides encoding peptides containing the C-terminal extension were inserted into the BamHI/EcoRI restriction sites within the pGEX-6P-1 vector. Total protein lysates were prepared from Escherichia coli that had been transformed with individual GST fusion protein constructs.
All short 4T-2 fragments were generated by annealing complementary oligos. The oligos used to synthesize the indicated fragments are summarized (Fasmac, Kanagawa, Japan) in Supplementary Table 2. Annealing reaction mixtures contained equimolar amounts of each oligo and the reactions were performed in a thermal cycler, with initial denaturation at 98 °C for 3 min, followed by a temperature decrease of 2 °C every 20 s down to 4 °C to allow the oligos to anneal slowly. The oligos contained the BamHI/EcoRI restriction sites and the 4T-2 fragments were cloned into these restriction sites within the pGEX-6P-1 vector (GE Healthcare, Buckinghamshire, England).
A fragment of the GST gene, encoding residues 2–212, was prepared by polymerase chain reaction (PCR) amplification using the Pfu polymerase (BioAcademia) and the pGEX-6P-1 plasmid as the template. […]

[2] = biological target: T1, synthetic peptide GSDLVPRGS (synthetic); test: ITC; VP-ITC, 25 C; cell: 25 uM G196 Fab in 20 mM Tris-HCl (pH 8.0), 150 mM NaCl; peptide (500 uM) injected; single-site model; details: both partners purified
T1 construct: source: synthetic peptide (Tufts University Core Facility)
T1 chain: GSDLVPRGS

Molecule: N=C(N)NCCC[C@H](N)C(=O)O [Arg]
- dissociation of FLAG-tagged proteins from column [1]: effectively dissociate FLAG-tagged proteins

Molecule: 6P-12: GST fusion protein with C-terminal extension fragment inserted in pGEX-6P-1 ({GST}-SDLVPRGSP)
- recognition by mAb G196 in Western blot (mAb G196): detected

B1: G196 antigen binding fragment (Fab) (Fab, V domains shown)
VH: QVKLQESGAELVKPGASVKLSCKASGYTFTNYWMHWVKLRPGQGFEWIGEINPSNGGSNYNEKFKRKATLTVDKSSSTAYMQLSSLTSEDSAVFYCSIWDSYFDYWGQGTTLTVSS
VL: NIVMTQSPKSMSMSVGERVTLTCKASENVVTYVSWYQQKPEQSPKLLIYGASNRYTGVPDRFTGSGSATDFTLTISSVQAEDLADYHCGQGYSYPYTFGGGTKLEIK
notes: Fab part of the heavy chain of m1; chain in PDB 5H2B; as the light chain of m1; also called G196 Fab; G196 IgG Fab; source: purified mAb G196 IgG fragmented using papain, Fab purified by protein A chromatography
- Kd [2]: 1.25 ± 0.77 nM
- dH [2]: -15.3 kcal/mol
- stoichiometry N [2]: 1.2 ± 0.05
